Reference: patent US20120238493A1 (INDIANA UNIVERSITY RESEARCH AND TECHNOLOGY, published 2012)
Like-named read-outs stand apart in the source and are kept apart here. *1 amine or outer side, *2 acyl side, *3 side chain or, on linkers, in order; H or OH if unused. Where no end group is shown, it is not given here. Side-chain parts run from the residue outwards. [ ]: non-standard residue; d: D form. The star is where a group is joined. Isobutyryl(2-imidazol-4-yl) = CC(C)(C(=O)*)c1c[nH]cn1; γGlu = O=C(O)[C@H](CCC(=O)[*:2])N[*:1]; Palmitoyl = CCCCCCCCCCCCCCCC(=O)*; Lauroyl = CCCCCCCCCCCC(=O)*; 40K‑TE = not defined here; Ac3c = NC1(C(=O)O)CC1; Aib = CC(C)(N)C(=O)O

T1: GIP receptor (UniProt P48546 22-466, limits assumed)
T1 sequence (looked up): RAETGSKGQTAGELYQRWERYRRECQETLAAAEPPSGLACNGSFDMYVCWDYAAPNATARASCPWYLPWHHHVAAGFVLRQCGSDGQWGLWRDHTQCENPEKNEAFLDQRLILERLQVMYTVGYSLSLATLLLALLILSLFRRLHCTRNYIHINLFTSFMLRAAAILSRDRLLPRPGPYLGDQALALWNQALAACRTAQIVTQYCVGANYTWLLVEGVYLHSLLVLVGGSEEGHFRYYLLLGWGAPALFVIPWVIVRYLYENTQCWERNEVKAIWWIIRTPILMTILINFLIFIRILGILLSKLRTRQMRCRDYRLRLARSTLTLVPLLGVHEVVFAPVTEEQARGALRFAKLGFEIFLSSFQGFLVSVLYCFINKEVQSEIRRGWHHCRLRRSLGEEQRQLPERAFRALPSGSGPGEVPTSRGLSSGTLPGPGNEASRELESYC


Assays:
Experiment in all cases: cell-based or functional assay
glucagon receptor [1] = target: T2, glucagon receptor (UniProt P47871 26-477, limits assumed)
T2 sequence (P47871 26-477 limits assumed): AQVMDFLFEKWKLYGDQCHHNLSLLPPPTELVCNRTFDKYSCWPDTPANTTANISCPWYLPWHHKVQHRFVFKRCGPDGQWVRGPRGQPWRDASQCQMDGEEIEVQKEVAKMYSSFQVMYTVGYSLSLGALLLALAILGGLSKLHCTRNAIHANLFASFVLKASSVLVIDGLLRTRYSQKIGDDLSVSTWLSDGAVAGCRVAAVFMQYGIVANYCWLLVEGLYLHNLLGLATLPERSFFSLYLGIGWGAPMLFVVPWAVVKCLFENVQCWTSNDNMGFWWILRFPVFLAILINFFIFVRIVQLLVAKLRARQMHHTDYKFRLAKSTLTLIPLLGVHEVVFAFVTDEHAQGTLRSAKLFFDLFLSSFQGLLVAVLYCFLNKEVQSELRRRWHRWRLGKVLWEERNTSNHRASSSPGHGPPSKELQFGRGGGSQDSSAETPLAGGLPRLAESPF

GLP-1 receptor [2] = target: T3, GLP-1 receptor (UniProt P43220 24-463, limits assumed)
GIP receptor [3] = target: T1, GIP receptor
glucagon receptor [4] = target: T2, glucagon receptor; remark: listed apart in the source
GLP-1 receptor [5] = target: T3, GLP-1 receptor; remark: listed apart in the source
GIP receptor [6] = target: T1, GIP receptor; remark: listed apart in the source

Binder	EC50 (cAMP reporter) (glucagon receptor [1]) [nM]	EC50 (cAMP reporter) (GLP-1 receptor [2]) [nM]	EC50 (cAMP reporter) (GIP receptor [3]) [nM]	EC50 (cAMP reporter) (glucagon receptor [4]) [nM]	EC50 (cAMP reporter) (GLP-1 receptor [5]) [nM]	EC50 (cAMP reporter) (GIP receptor [6]) [nM]
Y[Aib]QGTFTSDK([γGlu-γGlu-Palmitoyl])SIYLDKQAA[Aib]EFVNWLLAGGPSSGAPPPS-NH2 (N-terminus assumed; SMILES CCCCCCCCCCCCCCCC(=O)N[C@@H](CCC(=O)N[C@@H](CCC(=O)NCCCC[C@H](NC(=O)[C@H](CC(=O)O)NC(=O)[C@H](CO)NC(=O)[C@@H](NC(=O)[C@H](Cc1ccccc1)NC(=O)[C@@H](NC(=O)CNC(=O)[C@H](CCC(N)=O)NC(=O)C(C)(C)NC(=O)[C@@H](N)Cc1ccc(O)cc1)[C@@H](C)O)[C@@H](C)O)C(=O)N[C@@H](CO)C(=O)N[C@H](C(=O)N[C@@H](Cc1ccc(O)cc1)C(=O)N[C@@H](CC(C)C)C(=O)N[C@@H](CC(=O)O)C(=O)N[C@@H](CCCCN)C(=O)N[C@@H](CCC(N)=O)C(=O)N[C@@H](C)C(=O)N[C@@H](C)C(=O)NC(C)(C)C(=O)N[C@@H](CCC(=O)O)C(=O)N[C@@H](Cc1ccccc1)C(=O)N[C@H](C(=O)N[C@@H](CC(N)=O)C(=O)N[C@@H](Cc1c[nH]c2ccccc12)C(=O)N[C@@H](CC(C)C)C(=O)N[C@@H](CC(C)C)C(=O)N[C@@H](C)C(=O)NCC(=O)NCC(=O)N1CCC[C@H]1C(=O)N[C@@H](CO)C(=O)N[C@@H](CO)C(=O)NCC(=O)N[C@@H](C)C(=O)N1CCC[C@H]1C(=O)N1CCC[C@H]1C(=O)N1CCC[C@H]1C(=O)N[C@@H](CO)C(N)=O)C(C)C)[C@@H](C)CC)C(=O)O)C(=O)O) [peptide of SEQ ID NO: 81]	0.073	0.008	0.005			
Y[Aib]EGTFTSDYSIYLDKQAA[Aib]EFVNWLLAGGPSSGAPPPSC(PEG 40 kDa)-NH2 [peptide of SEQ ID NO: 175]	0.62	0.066	0.1			
H[Aib]QGTFTSDKSKYLDERAAQDFVQWLLDGRG-NH2 (not fully specified (residue 10)) [Analog No. 34: Aib2, K10acyl, E16, A18, L27, D28, GRG29-31 (SEQ ID NO: 29)]				0.007	0.003	0.064
H[Aib]QGTFTSDK([γGlu-Palmitoyl])SKYLDERRA[Aib]EFVQWLLDGGPSSGAPPPS-NH2 (N-terminus assumed; SMILES CCCCCCCCCCCCCCCC(=O)N[C@@H](CCC(=O)NCCCC[C@H](NC(=O)[C@H](CC(=O)O)NC(=O)[C@H](CO)NC(=O)[C@@H](NC(=O)[C@H](Cc1ccccc1)NC(=O)[C@@H](NC(=O)CNC(=O)[C@H](CCC(N)=O)NC(=O)C(C)(C)NC(=O)[C@@H](N)Cc1c[nH]cn1)[C@@H](C)O)[C@@H](C)O)C(=O)N[C@@H](CO)C(=O)N[C@@H](CCCCN)C(=O)N[C@@H](Cc1ccc(O)cc1)C(=O)N[C@@H](CC(C)C)C(=O)N[C@@H](CC(=O)O)C(=O)N[C@@H](CCC(=O)O)C(=O)N[C@@H](CCCNC(=N)N)C(=O)N[C@@H](CCCNC(=N)N)C(=O)N[C@@H](C)C(=O)NC(C)(C)C(=O)N[C@@H](CCC(=O)O)C(=O)N[C@@H](Cc1ccccc1)C(=O)N[C@H](C(=O)N[C@@H](CCC(N)=O)C(=O)N[C@@H](Cc1c[nH]c2ccccc12)C(=O)N[C@@H](CC(C)C)C(=O)N[C@@H](CC(C)C)C(=O)N[C@@H](CC(=O)O)C(=O)NCC(=O)NCC(=O)N1CCC[C@H]1C(=O)N[C@@H](CO)C(=O)N[C@@H](CO)C(=O)NCC(=O)N[C@@H](C)C(=O)N1CCC[C@H]1C(=O)N1CCC[C@H]1C(=O)N1CCC[C@H]1C(=O)N[C@@H](CO)C(N)=O)C(C)C)C(=O)O) [peptide of SEQ ID NO: 79]	0.004	0.006	0.003			
H[dS]QGTFTSDKSKYLDERRA[Aib]EFVQWLLDT-NH2 (not fully specified (residue 10)) [Analog No. 36: dSer2, K10acyl, E16, Aib20, E21, L27, D28 (SEQ ID NO: 30)]				0.008	0.0031	0.25
Y[Aib]QGTFTSDYSIYLDKQAA[Aib]EFVC(40K‑TE PEG)WLLAGGPSSGAPPPSK(Lauroyl)-NH2 [peptide of SEQ ID NO: 173]	0.19	0.011	0.089			
H[Aib]EGTFTSDK([γGlu-Palmitoyl])SKYLDERAAQDFVQWLLDGGPSSGAPPPS-NH2 (N-terminus assumed; SMILES CCCCCCCCCCCCCCCC(=O)N[C@@H](CCC(=O)NCCCC[C@H](NC(=O)[C@H](CC(=O)O)NC(=O)[C@H](CO)NC(=O)[C@@H](NC(=O)[C@H](Cc1ccccc1)NC(=O)[C@@H](NC(=O)CNC(=O)[C@H](CCC(=O)O)NC(=O)C(C)(C)NC(=O)[C@@H](N)Cc1c[nH]cn1)[C@@H](C)O)[C@@H](C)O)C(=O)N[C@@H](CO)C(=O)N[C@@H](CCCCN)C(=O)N[C@@H](Cc1ccc(O)cc1)C(=O)N[C@@H](CC(C)C)C(=O)N[C@@H](CC(=O)O)C(=O)N[C@@H](CCC(=O)O)C(=O)N[C@@H](CCCNC(=N)N)C(=O)N[C@@H](C)C(=O)N[C@@H](C)C(=O)N[C@@H](CCC(N)=O)C(=O)N[C@@H](CC(=O)O)C(=O)N[C@@H](Cc1ccccc1)C(=O)N[C@H](C(=O)N[C@@H](CCC(N)=O)C(=O)N[C@@H](Cc1c[nH]c2ccccc12)C(=O)N[C@@H](CC(C)C)C(=O)N[C@@H](CC(C)C)C(=O)N[C@@H](CC(=O)O)C(=O)NCC(=O)NCC(=O)N1CCC[C@H]1C(=O)N[C@@H](CO)C(=O)N[C@@H](CO)C(=O)NCC(=O)N[C@@H](C)C(=O)N1CCC[C@H]1C(=O)N1CCC[C@H]1C(=O)N1CCC[C@H]1C(=O)N[C@@H](CO)C(N)=O)C(C)C)C(=O)O) [peptide of SEQ ID NO: 80]	1.28	0.008	0.026			
[Isobutyryl(2-imidazol-4-yl)][dS]QGTFTSDKSKYLDERAAQDFVQWLLDT-NH2 (not fully specified (residue 10)) [Analog No. 44: DMIA1, dSer2, K10acyl, E16, A18, L27, D28 (SEQ ID NO: 32)]				0.004	0.003	0.103
H[Aib]QGTFISDYSIYLDKQAA[Ac3c]EFVNWLLAGGPSSGAPPPSC(40K‑TE)-NH2 (not fully specified; reading uncertain) [peptide of SEQ ID NO: 74]	2.52	6.42	2.54			
H[dS]QGTFTSDKSKYLDERAAQDFVQWLLDGGPSSGAPPPS-NH2 (not fully specified (residue 10)) [Analog No. 29: dSer2, K10acyl, E16, A18, L27, D28, G29 + CEX (SEQ ID NO: 27)]				0.003	0.002	0.085
YXEGTFTSDYSIYLDKQAAXEFVNWLLAGGPSSGAPPPSC (not fully specified; aib at 2; acpc at 20; C-terminal C(40K-TE); NH2) [peptide of SEQ ID NO: 73]	~10	0.91	1.56			
Y[Aib]QGTFTSDYSIYLDKQAA[Aib]EFVC(40K‑TE PEG)WLLAGGPSSGAPPPSK(C8)-NH2 [peptide of SEQ ID NO: 172]	3.06	0.108	0.487			
Y[Aib]QGTFISDYSIYLDKQAA[Ac3c]EFVNWLLAGGPSSGAPPPSC(40K‑TE)-NH2 (not fully specified; reading uncertain) [peptide of SEQ ID NO: 75]	3.12	17.7	2.44			
